Here are results for 125 sequences from the supplement of paper PMC9112550, “Optimization of the antimicrobial peptide Bac7 by deep mutational scanning” (BMC Biology, 2022).
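Further: peptides expressed intracellularly from a pBAD plasmid library in pooled LB shake-flask culture, induced with 0.3% L-arabinose, DNA abundance read by NGS, three biological replicates, DESeq2 with apeglm shrinkage.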

The subject of the series is Escherichia coli TOP10. The series can be described thus: shrunken log2 fold change of peptide-encoding DNA abundance (4.5 h post-induction vs induction); higher = less antimicrobial activity (less host growth inhibition). The conditions noted are these: time post-induction: 4.5 h; library: site-saturation at positions 5, 18, 19, 20.
On to RRIRCRPPRLPRPRPRPVRTPRP, for which the “shrunken log2 fold change” value stood at 0.39.
Next, RRIRKRPPRLPRPRPRPGYKPRP: 0.236.
Next, RRIRHRPPRLPRPRPRPWPHPRP: -0.0305.
On to RRIRERPPRLPRPRPRPHTCPRP, for which the “shrunken log2 fold change” value is -0.0792.
For RRIRSRPPRLPRPRPRPVKYPRP, the “shrunken log2 fold change” value was -0.177.
For the sequence RRIRSRPPRLPRPRPRPHYTPRP, the “shrunken log2 fold change” value was -0.728.
In the case of RRIRERPPRLPRPRPRPPEYPRP, the “shrunken log2 fold change” value is -0.0278.
Consider RRIRKRPPRLPRPRPRPTGHPRP, for which the “shrunken log2 fold change” value turned out to be 0.348.
Next, RRIRGRPPRLPRPRPRPLWNPRP: 0.116; RRIRHRPPRLPRPRPRPNFSPRP: -0.415; RRIRYRPPRLPRPRPRPPHQPRP: 0.378.
Next, RRIRLRPPRLPRPRPRPCVIPRP: -0.27.
Next, RRIRLRPPRLPRPRPRPFMDPRP: -0.361; RRIRARPPRLPRPRPRPDQVPRP: 0.359.
In the case of RRIRCRPPRLPRPRPRPDLFPRP, the “shrunken log2 fold change” value turned out to be 0.162.
Consider RRIRRRPPRLPRPRPRPWVYPRP, for which the “shrunken log2 fold change” value is 0.0234.
Next, RRIRFRPPRLPRPRPRPCQLPRP: -0.938; RRIRKRPPRLPRPRPRPAPQPRP: 0.937; RRIRYRPPRLPRPRPRPQTYPRP: -0.755.
Next, RRIRWRPPRLPRPRPRPVSPPRP: 0.175; RRIRFRPPRLPRPRPRPYQKPRP: -1.08.
Next, RRIRGRPPRLPRPRPRPNAAPRP: 2.21.
As for RRIRVRPPRLPRPRPRPCLMPRP, the “shrunken log2 fold change” value was -0.178.
Take RRIRRRPPRLPRPRPRPRNVPRP: the “shrunken log2 fold change” value worked out at 0.226.
In the case of RRIRTRPPRLPRPRPRPREIPRP, the “shrunken log2 fold change” value worked out at 0.00997.
Next, RRIRTRPPRLPRPRPRPNMEPRP: 0.343; RRIRARPPRLPRPRPRPCTDPRP: -0.0325.
As for RRIRGRPPRLPRPRPRPDSHPRP, the “shrunken log2 fold change” value was found to be 0.0299.
Take RRIRARPPRLPRPRPRPTEMPRP: the “shrunken log2 fold change” value is -0.00782.
Next, RRIRHRPPRLPRPRPRPLSHPRP: -0.00358; RRIRTRPPRLPRPRPRPRECPRP: 0.00425.
In the case of RRIRVRPPRLPRPRPRPIHIPRP, the “shrunken log2 fold change” value was -1.11.
Next, RRIRKRPPRLPRPRPRPKDCPRP: -0.0519.
For the sequence RRIRVRPPRLPRPRPRPTCVPRP, the “shrunken log2 fold change” value is -0.0916.
For the sequence RRIRIRPPRLPRPRPRPMCIPRP, the “shrunken log2 fold change” value was -0.232.
On to RRIRERPPRLPRPRPRPDEFPRP, for which the “shrunken log2 fold change” value amounted to 0.0332.
Next, RRIRERPPRLPRPRPRPCLQPRP: -0.218; RRIRDRPPRLPRPRPRPRTYPRP: -0.126.
For the sequence RRIRERPPRLPRPRPRPWKKPRP, the “shrunken log2 fold change” value was -0.0959.
Turning to RRIRCRPPRLPRPRPRPHHQPRP, the “shrunken log2 fold change” value was -0.278.
Next, RRIRFRPPRLPRPRPRPPDGPRP: 0.209.
Next, RRIRIRPPRLPRPRPRPSLIPRP: -0.604; RRIRFRPPRLPRPRPRPAKNPRP: -0.0212.
For the sequence RRIRIRPPRLPRPRPRPENNPRP, the “shrunken log2 fold change” value is -0.36.
Next, RRIRFRPPRLPRPRPRPYKIPRP: -0.462.
Consider RRIRPRPPRLPRPRPRPDWGPRP, for which the “shrunken log2 fold change” value came out at 0.107.
Regarding RRIRNRPPRLPRPRPRPFVAPRP, the “shrunken log2 fold change” value was -0.41.
Next, RRIRPRPPRLPRPRPRPKDKPRP: -0.125; RRIRVRPPRLPRPRPRPPVAPRP: 0.466; RRIRSRPPRLPRPRPRPGTAPRP: 0.33.
On to RRIRWRPPRLPRPRPRPWTCPRP, for which the “shrunken log2 fold change” value amounted to 0.0612.
Turning to RRIRRRPPRLPRPRPRPSPWPRP, the “shrunken log2 fold change” value stood at 0.335.
Next, RRIRFRPPRLPRPRPRPALNPRP: 0.0855.
With RRIRTRPPRLPRPRPRPGDAPRP, the “shrunken log2 fold change” value amounted to 0.206.
Next, RRIRDRPPRLPRPRPRPEGPPRP: 1.51; RRIRQRPPRLPRPRPRPCLRPRP: -0.379; RRIRTRPPRLPRPRPRPDLPPRP: 0.0603.
In the case of RRIRYRPPRLPRPRPRPAGRPRP, the “shrunken log2 fold change” value was 0.104.
Regarding RRIRHRPPRLPRPRPRPYPEPRP, the “shrunken log2 fold change” value is -0.267.
Next, RRIRKRPPRLPRPRPRPMKPPRP: 0.145; RRIRYRPPRLPRPRPRPFTSPRP: -0.0993.
In the case of RRIRHRPPRLPRPRPRPWTVPRP, the “shrunken log2 fold change” value was -0.217.
Next, RRIRHRPPRLPRPRPRPTEPPRP: 0.0484; RRIRHRPPRLPRPRPRPQCEPRP: -0.122.
Next, RRIRLRPPRLPRPRPRPHPSPRP: -0.0856; RRIRARPPRLPRPRPRPEIGPRP: 0.675; RRIRPRPPRLPRPRPRPHHNPRP: -0.859.
With RRIRVRPPRLPRPRPRPLYLPRP, the “shrunken log2 fold change” value was -0.507.
As to RRIRNRPPRLPRPRPRPILLPRP, the “shrunken log2 fold change” value was -0.103.
As to RRIRGRPPRLPRPRPRPMLMPRP, the “shrunken log2 fold change” value was determined as 1.09.
Next, RRIRARPPRLPRPRPRPFYVPRP: -0.383.
On to RRIRKRPPRLPRPRPRPHFYPRP, for which the “shrunken log2 fold change” value was -0.0034.
Consider RRIRGRPPRLPRPRPRPGVVPRP, for which the “shrunken log2 fold change” value worked out at 1.43.
Next, RRIRWRPPRLPRPRPRPDPLPRP: 0.221; RRIRCRPPRLPRPRPRPMGGPRP: 0.145; RRIRLRPPRLPRPRPRPIKHPRP: -0.821.
Next, RRIRCRPPRLPRPRPRPEQLPRP: 0.407.
Next, RRIRIRPPRLPRPRPRPNQWPRP: -0.422.
Take RRIRYRPPRLPRPRPRPDHFPRP: the “shrunken log2 fold change” value amounted to 0.00911.
Take RRIRVRPPRLPRPRPRPHKGPRP: the “shrunken log2 fold change” value is -0.0569.
Next, RRIRMRPPRLPRPRPRPIQLPRP: -0.0799; RRIRIRPPRLPRPRPRPAVQPRP: -0.107.
On to RRIRNRPPRLPRPRPRPCSDPRP, for which the “shrunken log2 fold change” value stood at 0.0121.
For RRIRSRPPRLPRPRPRPMTQPRP, the “shrunken log2 fold change” value was -0.116.
Take RRIRQRPPRLPRPRPRPENAPRP: the “shrunken log2 fold change” value was found to be 0.242.
With RRIRARPPRLPRPRPRPEHSPRP, the “shrunken log2 fold change” value stood at 0.244.
Next, RRIRRRPPRLPRPRPRPTFYPRP: 0.191; RRIRCRPPRLPRPRPRPQGTPRP: -0.35; RRIRDRPPRLPRPRPRPCNSPRP: -0.0276.
For the sequence RRIRHRPPRLPRPRPRPKIHPRP, the “shrunken log2 fold change” value was -0.393.
Next, RRIRTRPPRLPRPRPRPWPPPRP: 0.154; RRIRDRPPRLPRPRPRPCSCPRP: 0.173; RRIRGRPPRLPRPRPRPQVCPRP: 2.63e-05.
RRIRHRPPRLPRPRPRPLVKPRP: the “shrunken log2 fold change” value was -0.29.
As for RRIRTRPPRLPRPRPRPTHGPRP, the “shrunken log2 fold change” value worked out at 0.0213.
Next, RRIRERPPRLPRPRPRPVLIPRP: -0.153; RRIRFRPPRLPRPRPRPEVGPRP: 0.296.
Next, RRIRSRPPRLPRPRPRPCVFPRP: -0.112.
Next, RRIRNRPPRLPRPRPRPDRWPRP: 0.00119; RRIRTRPPRLPRPRPRPSAQPRP: 0.0735.
Regarding RRIRYRPPRLPRPRPRPHLIPRP, the “shrunken log2 fold change” value is -0.103.
Next, RRIRCRPPRLPRPRPRPYMWPRP: -0.913.
Next, RRIRNRPPRLPRPRPRPDCMPRP: 0.113; RRIRWRPPRLPRPRPRPQGGPRP: -0.0626.
Next, RRIRGRPPRLPRPRPRPTDWPRP: 0.8; RRIRTRPPRLPRPRPRPKEGPRP: -0.0199; RRIRMRPPRLPRPRPRPTMRPRP: 1.4.
Regarding RRIRVRPPRLPRPRPRPIQDPRP, the “shrunken log2 fold change” value is -0.134.
Next, RRIRFRPPRLPRPRPRPIHFPRP: -0.246; RRIRTRPPRLPRPRPRPCASPRP: 0.184; RRIRHRPPRLPRPRPRPWFFPRP: -0.379.
Turning to RRIRDRPPRLPRPRPRPEHGPRP, the “shrunken log2 fold change” value was determined as 0.0582.
Next, RRIRPRPPRLPRPRPRPWLTPRP: -0.123.
Take RRIRSRPPRLPRPRPRPQATPRP: the “shrunken log2 fold change” value was -0.107.
Turning to RRIRYRPPRLPRPRPRPTLVPRP, the “shrunken log2 fold change” value is -0.0641.
Next, RRIRNRPPRLPRPRPRPMLWPRP: 0.0244; RRIRKRPPRLPRPRPRPKTQPRP: 0.422.
Next, RRIRFRPPRLPRPRPRPPGKPRP: 0.2; RRIRHRPPRLPRPRPRPMGSPRP: -0.0537.
Next, RRIRIRPPRLPRPRPRPIWTPRP: -0.0318; RRIRARPPRLPRPRPRPAHHPRP: 0.123; RRIRGRPPRLPRPRPRPWCKPRP: -0.184.
Consider RRIRCRPPRLPRPRPRPVATPRP, for which the “shrunken log2 fold change” value was 0.443.
As to RRIRWRPPRLPRPRPRPRAMPRP, the “shrunken log2 fold change” value was found to be 0.363.
For the sequence RRIRYRPPRLPRPRPRPDEHPRP, the “shrunken log2 fold change” value is -0.0204.
